US20190338048A1
Like-named read-outs stand apart in the source and are kept apart here.

Legend:
[1] = molecular target: CAT-2200 Fab heavy chain L143D_K145T; assay: LCCA
[2] = molecular target: CAT-2200 Fab heavy chain S186K; assay: LCCA
[3] = molecular target: CAT-2200 Fab heavy chain L143A_Q179K; assay: LCCA
[4] = molecular target: CAT-2200 Fab heavy chain L143A_Q179K; assay: LCCA; remark: listed apart in the source
[5] = molecular target: CAT-2200 Fab heavy chain Q179K; assay: LCCA
[6] = molecular target: CAT-2200 lambda light chain K129T_V133D_L135S; assay: LCCA, SPR tag read-out
[7] = molecular target: Pertuzumab kappa light chain S131K_L135K; assay: LCCA, SPR tag read-out

Substance: CAT-2200 lambda light chain E124Q_T131K_V133S
- H1L1:H1L2 median scalar value (ln(H1L1:H1L2)) [1]: 0.54

Substance: CAT-2200 lambda light chain K129T_V133D_Y178T
- H1L1:H1L2 median scalar value (ln(H1L1:H1L2)) [2]: 0.06

Substance: CAT-2200 lambda light chain K129T_V133W_S180E
- H1L1:H1L2 median scalar value (ln(H1L1:H1L2)) [3]: 1.51
- H1L1:H1L2 median scalar value (ln(H1L1:H1L2)) [4]: 0.88

Substance: CAT-2200 lambda light chain K129T_Y178E_S180E
- H1L1:H1L2 median scalar value (ln(H1L1:H1L2)) [5]: 0.89

Substance: Pertuzumab Fab heavy chain L124E_A139I_K145T_V190I
- H2L2:H2L1 normalized median ratio [6]: 39%
- H2L2:H2L1 median scalar value [7]: 0.48 ln(ratio)
- H2L2:H2L1 normalized median ratio [7]: 61%
